# Data reported in US20180044435A1 (GENEFRONTIER, published 2018).
# T1: mouse membrane-anchored form ADAM28 (mouse, UniProt Q9JLN6 196-774)
# T1 construct: Expressed on transfected CHO-K1 cells; also called mouse ADAM28m; mouse ADAM28
# T1 chain: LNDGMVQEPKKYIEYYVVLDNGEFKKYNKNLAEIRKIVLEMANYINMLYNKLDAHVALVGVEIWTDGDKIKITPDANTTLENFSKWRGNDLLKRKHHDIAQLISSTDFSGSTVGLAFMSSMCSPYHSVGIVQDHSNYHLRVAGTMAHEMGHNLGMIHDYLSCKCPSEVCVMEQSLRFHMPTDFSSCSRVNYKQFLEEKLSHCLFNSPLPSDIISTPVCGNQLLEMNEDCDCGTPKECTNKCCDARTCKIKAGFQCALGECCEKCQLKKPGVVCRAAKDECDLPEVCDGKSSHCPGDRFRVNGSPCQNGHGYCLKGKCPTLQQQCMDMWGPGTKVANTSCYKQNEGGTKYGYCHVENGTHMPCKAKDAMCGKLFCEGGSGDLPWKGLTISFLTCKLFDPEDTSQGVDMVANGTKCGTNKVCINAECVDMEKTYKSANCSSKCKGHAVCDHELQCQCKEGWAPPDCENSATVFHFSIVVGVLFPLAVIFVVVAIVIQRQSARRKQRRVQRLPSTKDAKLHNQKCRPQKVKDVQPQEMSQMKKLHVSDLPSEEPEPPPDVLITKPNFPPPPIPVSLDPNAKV
# T2: MBP-human ADAM28m 524-659 (human, UniProt Q9UKQ2 524-659)
# T2 construct: also called the immunogen
# T2 sequence: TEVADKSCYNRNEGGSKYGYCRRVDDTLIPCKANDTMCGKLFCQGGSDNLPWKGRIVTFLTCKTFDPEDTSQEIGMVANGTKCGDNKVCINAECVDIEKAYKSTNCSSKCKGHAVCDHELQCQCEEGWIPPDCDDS
# T3: MBP-mouse ADAM28m 527-622 (mouse, UniProt Q9JLN6 527-622)
# T3 sequence: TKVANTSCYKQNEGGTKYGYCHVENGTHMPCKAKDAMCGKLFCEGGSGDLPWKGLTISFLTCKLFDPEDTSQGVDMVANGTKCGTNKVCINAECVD
# How the values were obtained:
# [1] = target: T1, mouse membrane-anchored form ADAM28; experiment: immunofluorescence staining of transfected CHO-K1 cells, 5 µg/ml antibody
# Description: CHO-K1 cells co-transfected with mouse membrane-anchored form ADAM28 and EGFP were treated with 2B6D10 antibody (5 μg/ml) at 4° C. for 1.5 hr. The cells were washed and treated with anti-mouse IgG-Alexa555 (1:300) at 4° C. for 1 hr. The cells were washed, fixed and observed. The results are shown in, FIG. 3.
# [2] = target: T2, MBP-human ADAM28m 524-659; experiment: SPR, BIAcore 3000, fusion protein amine-coupled on CM5 chip, antibody injected
# Description: (§1) A fusion protein in which a 524-659 region of human membrane-anchored form ADAM28 (SEQ ID NO: 2) is added to C-terminal of MBP (MBP-human ADAM28m 524-659) and a fusion protein in which a 527-622 region of mouse membrane-anchored form ADAM28 (SEQ ID NO: 26) is added to C-terminal of MBP (MBP-mouse ADAM28m 527-622) were each immobilized on CM5 sensor chip (GE Healthcare Life Sciences, Buckinghamshire, UK) by amine-coupling and 2B6D10 antibody was injected to a flow cell by using BIAcore 3000 (GE Healthcare Life Sciences). The KD value was calculated from the measured Ka and Kd values.
# [3] = target: T3, MBP-mouse ADAM28m 527-622; experiment: as above
# Description: as §1
# [4] = target: fusion protein of MBP with region 524-562 of human membrane-anchored form ADAM28 (SEQ ID NO: 2) at its … (human); experiment: Western blotting
# Description: The reactivity of anti-human membrane-anchored form ADAM28 antibody 2B6D10 with the above-mentioned fusion proteins was evaluated by Western blotting.
binder,measurement,setting,value
"anti-human membrane-anchored form ADAM28 antibody 2B6D10 (antibody, V domains shown, Mouse monoclonal antibody from a hybridoma, detected with anti-mouse IgG; also called 2B6D10 antibody; clone 2B6D10) VH: QVQLQQSGAELARPGASVKLSCKASGYTFTSYGISWVKQRTGQGLEWIGEIYPRSGNTYYNEKFKGKATLTADKSSSTAYMELRRLTSEDSAVFFCARENVYSSNYGFAFWGQGTLVTVSA VL: DVLMTQTPLSLPVSLGDQASISCRSSQNIIHSDGNTYLEWYLQKPGQSPKFLIYKVSNRFSGVPDRFSGSGSGTDFTLKISRVEAEDLGVYYCLQGSHVPWTFGGGTKLEIKR",binding result,[1],binds
same,Kd,[2],0.0935 nM
same,Kd,[3],0.236 nM
same,binding result,[4],binds
